B1: Genetic suppressor element 1 (Homo sapiens), Q14687 (parent)
chain: MKGMSHEPKSPSLGMLSTATRTTATVNPLTPSPLNGALVPSGSPATSSALSAQAAPSSSFAAALRKLAKQAEEPRGSSLSSESSPVSSPATNHSSPASTPKRVPMGPIIVPPGGHSVPSTPPVVTIAPTKTVNGVWRSESRQDAGSRSSSGGRERLIVEPPLPQEKAGGPAIPSHLLSTPYPFGLSPSSVVQDSRFPPLNLQRPVHHVVPPSTVTEDYLRSFRPYHTTDDLRMSSLPPLGLDPATAAAYYHPSYLAPHPFPHPAFRMDDSYCLSALRSPFYPIPTPGSLPPLHPSAMHLHLSGVRYPPELSHSSLAALHSERMSGLSAERLQMDEELRREREREREREREREADREREKEREREREKEREQEKEREREKERERELERQREQRAREKELLAAKALEPSFLPVAELHGLRGHATEERGKPSEQLTPTRAEKLKDAGLQAPKPVQHPLHPVPTPHHTVPSLISNHGIFSLPSSSAATALLIQRTNEEEKWLARQRRLRQEKEDRQSQVSEFRQQVLEQHLDMGRPPVPAEAEHRPESTTRPGPNRHEPGGRDPPQHFGGPPPLISPKPQLHAAPTALWNPVSLMDNTLETRRAESHSLHSHPAAFEPSRQAAVPLVKVERVFCPEKAEEGPRKREPAPLDKYQPPPPPPREGGSLEHQPFLPGPGPFLAELEKSTQTILGQQRASLPQAATFGELSGPLKPGSPYRPPVPRAPDPAYIYDEFLQQRRRLVSKLDLEERRRREAQEKGYYYDLDDSYDESDEEEVRAHLRCVAEQPPLKLDTSSEKLEFLQLFGLTTQQQKEELVAQKRRKRRRMLRERSPSPPTIQSKRQTPSPRLALSTRYSPDEMNNSPNFEEKKKFLTIFNLTHISAEKRKDKERLVEMLRAMKQKALSAAVADSLTNSPRDSPAVSLSEPATQQASLDVEKPVGVAASLSDIPKAAEPGKLEQVRPQELSRVQELAPASGEKARLSEAPGGKKSLSMLHYIRGAAPKDIPVPLSHSTNGKSKPWEPFVAEEFAHQFHESVLQSTQKALQKHKGSVAVLSAEQNHKVDTSVHYNIPELQSSSRAPPPQHNGQQEPPTARKGPPTQELDRDSEEEEEEDDEDGEDEEEVPKRKWQGIEAVFEAYQEHIEEQNLERQVLQTQCRRLEARHYSLSLTAEQLSHSVAELRSQKQKMVSERERLQAELDHLRKCLALPAMHWPRGYLKGYPR
partner: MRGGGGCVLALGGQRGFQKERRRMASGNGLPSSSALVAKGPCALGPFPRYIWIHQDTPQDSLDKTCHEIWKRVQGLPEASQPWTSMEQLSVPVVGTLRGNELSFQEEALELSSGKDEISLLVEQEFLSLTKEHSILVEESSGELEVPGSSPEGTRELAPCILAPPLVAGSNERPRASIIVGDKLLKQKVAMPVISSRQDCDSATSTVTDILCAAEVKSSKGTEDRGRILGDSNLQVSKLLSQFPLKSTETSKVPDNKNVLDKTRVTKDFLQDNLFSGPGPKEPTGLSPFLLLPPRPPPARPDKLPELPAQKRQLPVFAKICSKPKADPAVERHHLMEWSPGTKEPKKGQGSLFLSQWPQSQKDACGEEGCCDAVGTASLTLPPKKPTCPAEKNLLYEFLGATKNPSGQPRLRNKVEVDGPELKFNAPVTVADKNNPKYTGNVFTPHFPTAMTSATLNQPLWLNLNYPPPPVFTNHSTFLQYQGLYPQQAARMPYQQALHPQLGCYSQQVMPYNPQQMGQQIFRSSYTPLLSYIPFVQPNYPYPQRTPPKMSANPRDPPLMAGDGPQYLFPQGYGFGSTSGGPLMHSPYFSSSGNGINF
B2: Ligand of Numb protein X 2 (Homo sapiens), Q8N448 (parent)
chain: MGTTSDEMVSVEQTSSSSLNPLCFECGQQHWTRENHLYNYQNEVDDDLVCHICLQPLLQPLDTPCGHTFCYKCLRNFLQEKDFCPLDRKRLHFKLCKKSSILVHKLLDKLLVLCPFSSVCKDVMQRCDLEAHLKNRCPGASHRRVALERRKTSRTQAEIENENGPTLLDPAGTLSPEADCLGTGAVPVERHLTSASLSTWSEEPGLDNPAFEESAGADTTQQPLSLPEGEITTIEIHRSNPYIQLGISIVGGNETPLINIVIQEVYRDGVIARDGRLLAGDQILQVNNYNISNVSHNYARAVLSQPCNTLHLTVLRERRFGNRAHNHSDSNSPREEIFQVALHKRDSGEQLGIKLVRRTDEPGVFILDLLEGGLAAQDGRLSSNDRVLAINGHDLKYGTPELAAQIIQASGERVNLTIARPGKPQPGNTIREAGNHSSSSQHHTPPPYYSRPSSHKDLTQCVTCQEKHITVKKEPHESLGMTVAGGRGSKSGELPIFVTSVPPHGCLARDGRIKRGDVLLNINGIDLTNLSHSEAVAMLKASAASPAVALKALEVQIVEEATQNAEEQPSTFSENEYDASWSPSWVMWLGLPSTLHSCHDIVLRRSYLGSWGFSIVGGYEENHTNQPFFIKTIVLGTPAYYDGRLKCGDMIVAVNGLSTVGMSHSALVPMLKEQRNKVTLTVICWPGSLV
partner: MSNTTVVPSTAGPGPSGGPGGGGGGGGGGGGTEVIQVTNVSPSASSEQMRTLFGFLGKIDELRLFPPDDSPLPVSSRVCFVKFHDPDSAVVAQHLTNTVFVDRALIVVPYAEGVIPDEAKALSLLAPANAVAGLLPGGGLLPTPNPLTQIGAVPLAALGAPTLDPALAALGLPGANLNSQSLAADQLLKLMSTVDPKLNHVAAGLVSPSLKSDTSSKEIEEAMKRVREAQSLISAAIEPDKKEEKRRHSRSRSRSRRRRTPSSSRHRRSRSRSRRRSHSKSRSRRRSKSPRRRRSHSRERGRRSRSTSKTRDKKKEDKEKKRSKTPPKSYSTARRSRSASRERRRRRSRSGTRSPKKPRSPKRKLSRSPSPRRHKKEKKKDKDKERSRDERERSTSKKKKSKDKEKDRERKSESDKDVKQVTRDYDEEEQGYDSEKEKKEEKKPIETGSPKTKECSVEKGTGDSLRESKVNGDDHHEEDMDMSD
B3: Inactive peptidyl-prolyl cis-trans isomerase FKBP6 (Homo sapiens), O75344 (parent)
chain: MGGSALNQGVLEGDDAPGQSLYERLSQRMLDISGDRGVLKDVIREGAGDLVAPDASVLVKYSGYLEHMDRPFDSNYFRKTPRLMKLGEDITLWGMELGLLSMRRGELARFLFKPNYAYGTLGCPPLIPPNTTVLFEIELLDFLDCAESDKFCALSAEQQDQFPLQKVLKVAATEREFGNYLFRQNRFYDAKVRYKRALLLLRRRSAPPEEQHLVEAAKLPVLLNLSFTYLKLDRPTIALCYGEQALIIDQKNAKALFRCGQACLLLTEYQKARDFLVRAQKEQPFNHDINNELKKLASCYRDYVDKEKEMWHRMFAPCGDGSTAGES
partner: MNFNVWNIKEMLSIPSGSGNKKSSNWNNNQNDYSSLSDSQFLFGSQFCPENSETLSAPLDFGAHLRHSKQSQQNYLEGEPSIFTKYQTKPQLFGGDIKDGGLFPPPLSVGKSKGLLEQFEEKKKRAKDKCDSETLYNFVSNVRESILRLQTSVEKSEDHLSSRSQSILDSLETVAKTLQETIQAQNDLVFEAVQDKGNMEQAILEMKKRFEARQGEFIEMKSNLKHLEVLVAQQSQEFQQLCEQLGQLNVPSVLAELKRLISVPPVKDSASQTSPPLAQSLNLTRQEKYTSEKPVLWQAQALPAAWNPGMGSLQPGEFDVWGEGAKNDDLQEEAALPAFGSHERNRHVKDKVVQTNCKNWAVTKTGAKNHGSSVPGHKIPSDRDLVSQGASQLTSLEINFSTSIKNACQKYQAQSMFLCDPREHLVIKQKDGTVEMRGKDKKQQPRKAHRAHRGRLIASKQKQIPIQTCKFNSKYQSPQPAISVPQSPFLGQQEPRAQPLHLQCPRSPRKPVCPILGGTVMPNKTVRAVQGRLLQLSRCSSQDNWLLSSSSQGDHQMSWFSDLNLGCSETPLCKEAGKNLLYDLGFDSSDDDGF
B4: Glutaredoxin-3 (Homo sapiens), O76003 (parent)
chain: MAAGAAEAAVAAVEEVGSAGQFEELLRLKAKSLLVVHFWAPWAPQCAQMNEVMAELAKELPQVSFVKLEAEGVPEVSEKYEISSVPTFLFFKNSQKIDRLDGAHAPELTKKVQRHASSGSFLPSANEHLKEDLNLRLKKLTHAAPCMLFMKGTPQEPRCGFSKQMVEILHKHNIQFSSFDIFSDEEVRQGLKAYSSWPTYPQLYVSGELIGGLDIIKELEASEELDTICPKAPKLEERLKVLTNKASVMLFMKGNKQEAKCGFSKQILEILNSTGVEYETFDILEDEEVRQGLKAYSNWPTYPQLYVKGELVGGLDIVKELKENGELLPILRGEN
partner: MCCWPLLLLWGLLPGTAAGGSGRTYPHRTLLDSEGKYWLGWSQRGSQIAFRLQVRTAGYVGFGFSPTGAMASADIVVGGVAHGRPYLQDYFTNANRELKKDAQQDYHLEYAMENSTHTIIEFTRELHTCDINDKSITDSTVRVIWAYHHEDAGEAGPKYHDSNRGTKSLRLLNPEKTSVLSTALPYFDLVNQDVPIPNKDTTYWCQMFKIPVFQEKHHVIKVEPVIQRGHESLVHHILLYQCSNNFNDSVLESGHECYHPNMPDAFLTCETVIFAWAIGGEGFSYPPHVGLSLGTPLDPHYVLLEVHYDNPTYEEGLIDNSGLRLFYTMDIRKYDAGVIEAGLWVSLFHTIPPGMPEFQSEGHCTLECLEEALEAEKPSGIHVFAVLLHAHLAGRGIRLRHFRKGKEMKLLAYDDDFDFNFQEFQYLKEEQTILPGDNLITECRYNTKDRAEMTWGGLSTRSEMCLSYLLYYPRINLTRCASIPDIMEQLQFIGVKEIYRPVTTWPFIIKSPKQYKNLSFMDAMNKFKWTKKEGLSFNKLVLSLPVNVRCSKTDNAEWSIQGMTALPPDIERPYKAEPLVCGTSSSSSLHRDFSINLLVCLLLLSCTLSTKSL
B5: Glycodelin (Homo sapiens), P09466 (parent)
chain: MLCLLLTLGVALVCGVPAMDIPQTKQDLELPKLAGTWHSMAMATNNISLMATLKAPLRVHITSLLPTPEDNLEIVLHRWENNSCVEKKVLGEKTENPKKFKINYTVANEATLLDTDYDNFLFLCLQDTTTPIQSMMCQYLARVLVEDDEIMQGFIRAFRPLPRHLWYLLDLKQMEEPCRF
partner: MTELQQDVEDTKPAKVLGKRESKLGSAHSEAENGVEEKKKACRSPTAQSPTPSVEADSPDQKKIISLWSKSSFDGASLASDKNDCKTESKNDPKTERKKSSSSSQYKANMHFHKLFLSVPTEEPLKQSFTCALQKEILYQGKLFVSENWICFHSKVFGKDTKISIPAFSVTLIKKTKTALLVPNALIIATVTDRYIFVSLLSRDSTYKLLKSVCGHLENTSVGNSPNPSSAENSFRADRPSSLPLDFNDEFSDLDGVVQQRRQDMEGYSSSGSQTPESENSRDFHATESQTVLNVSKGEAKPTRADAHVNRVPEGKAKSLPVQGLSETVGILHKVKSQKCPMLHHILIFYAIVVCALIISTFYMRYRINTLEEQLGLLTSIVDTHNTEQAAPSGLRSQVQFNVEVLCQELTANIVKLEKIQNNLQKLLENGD

Variants of: B1
Conditions: with ca094_human C1orf94, Q6P1W5

| effect of a mutation on the interaction | Variant |
| --- | --- |
| with no effect | R503Q |

Variants of: B1
Conditions: with ca094_human C1orf94, Q6P1W5
Remark: another data set of the same source

| effect of a mutation on the interaction | Variant |
| --- | --- |
| with no effect | E368K |

Variants of: B2
Conditions: with srs11_human SRSF11, Q05519

| effect of a mutation on the interaction | Variant |
| --- | --- |
| with no effect | P669A |

Variants of: B3
Conditions: with iho1_human IHO1, Q8IYA8

| effect of a mutation on the interaction | Variant |
| --- | --- |
| disrupting interaction strength | L246F |

Variants of: B4
Conditions: with moxd1_human MOXD1, Q6UVY6

| effect of a mutation on the interaction | Variant |
| --- | --- |
| with no effect | P145A |

Variants of: B5
Conditions: with grm2b_human GRAMD2B

| effect of a mutation on the interaction | Variant |
| --- | --- |
| disrupting interaction strength | V75F |

Source: IntAct's records for PubMed 29892012
